{"source": "patent US20240156961A1", "about": "“TISSUE-SPECIFIC ANTIGENS FOR CANCER IMMUNOTHERAPY” (priority 2020, published 2024)", "molecules": {"B1": {"name": "AYSEKVTEF (peptide)", "peptide": "AYSEKVTEF"}, "B2": {"name": "IRNKSVILL (peptide)", "peptide": "IRNKSVILL"}, "B3": {"name": "LLANGRMPTV (peptide)", "peptide": "LLANGRMPTV"}, "B4": {"name": "LRPGDDSTL (peptide)", "peptide": "LRPGDDSTL", "notes": "4002 is used here"}, "B5": {"name": "MPALPMVL (peptide)", "peptide": "MPALPMVL"}, "B6": {"name": "NRPLLANDL (peptide)", "peptide": "NRPLLANDL"}, "B7": {"name": "TWIAPPLQV (peptide)", "peptide": "TWIAPPLQV"}, "B8": {"name": "VFQVSHSF (peptide)", "peptide": "VFQVSHSF"}, "B9": {"name": "YSEKVTEFML (peptide)", "peptide": "YSEKVTEFML"}, "B10": {"name": "LLSHGAVIEV (peptide)", "peptide": "LLSHGAVIEV"}, "B11": {"name": "SVPNKALEL (peptide)", "peptide": "SVPNKALEL"}, "B12": {"name": "SLSKILDTV (peptide)", "peptide": "SLSKILDTV"}, "B13": {"name": "SIPTKALEL (peptide)", "peptide": "SIPTKALEL"}, "B14": {"name": "SLDQKLFQL (peptide)", "peptide": "SLDQKLFQL"}, "B15": {"name": "SLLQHLIGL (peptide)", "peptide": "SLLQHLIGL"}, "B16": {"name": "EVDPASNTY (peptide)", "peptide": "EVDPASNTY"}, "B17": {"name": "GVYDGREHTV (peptide)", "peptide": "GVYDGREHTV"}, "B18": {"name": "KVDELAHFL (peptide)", "peptide": "KVDELAHFL"}, "B19": {"name": "KVLEHVVRV (peptide)", "peptide": "KVLEHVVRV"}, "B20": {"name": "HPEYNRPLL (peptide)", "peptide": "HPEYNRPLL"}, "B21": {"name": "QRVPVSHSF (peptide)", "peptide": "QRVPVSHSF"}, "B22": {"name": "LFHPEDTGQVF (peptide)", "peptide": "LFHPEDTGQVF"}, "B23": {"name": "GYLQGLVSF (peptide)", "peptide": "GYLQGLVSF"}}, "key": {"[1]": {"biological_target": "T1, class I HLA molecules (Homo sapiens, UniProt P01889)", "T1 construct": "Frozen cell pellets endogenously expressing MHC molecules (untagged) or biotin acceptor peptide (BAP)-tagged MHC molecules; biotin acceptor peptide (BAP), only in some samples; endogenous in cells; host or cells: Human cell lines (e.g. MDAPCa2b, CAMA1, HCC1500, A375, Expi293, B721) and human tissue (prostate, tumours); some cell samples express BAP-tagged HLA", "assay": "Targeted mass spectrometry MHC-peptide analysis (SureQuant, heavy isotope-labeled synthetic peptides)", "settings": "light endogenous vs heavy isotope-labeled synthetic peptide; human prostate specimen; HLA-B*07:02; Skyline software", "protocol": "Tissue samples were homogenized in lysis buffer plus benzonase nuclease. All lysates were cleared by centrifugation. […] BAP-tagged samples were biotinylated with 0.56 μM biotin, 1 mM ATP, and 1 μM BirA biotin ligase for 10 minutes, and subsequently incubated with High-Capacity NeutrAvidin Agarose resin for 30 minutes at 4° C. with end-over-end rotation. […] MHC molecules were eluted using 10% acetic acid and peptides were isolated using 10K molecular weight cut-off filtration following filter passivation with 1% bovine serum albumin (BSA). If required, samples were next reduced and alkylated using 5 mM Bond-Breaker TCEP solution at 60° C. for 30 min followed by 15 mM 2-Iodoacetamide for 30 min, protected from light. […] The volume of eluted peptides was reduced using vacuum centrifugation. For targeted analyses, isolated MHC-I peptides were labeled using an isobaric labeling reagent from the tandem mass tag (TMT) 10-plex reagent set (Thermo Fisher). Dried peptides were resuspended in 50 mM HEPES buffer pH 8.5 and combined with 33.3 μg of TMT solubilized in 100% anhydrous acetonitrile. […] Peptides were analyzed using SureQuant targeted data acquisition strategy, where the heavy isotope labeled synthetic peptide serves as a trigger to guide the acquisition of spectrum corresponding to the light (unlabeled) endogenous MHC peptide using mass offset triggering and pseudo-spectral matching. […]"}, "[2]": {"biological_target": "T2, HLA-C*06:02 (human)", "T2 construct": "MHC class I molecule expressed by the cells or tissue sample (endogenous or BAP-tagged), immunopurified before peptide elution", "assay": "MS validation of HLA class I-presented peptide; sample MDAPCa2b", "description": "(§1) Frozen cell pellets endogenously expressing MHC molecules (untagged) or biotin acceptor peptide (BAP)-tagged MHC molecules were lysed by pipetting and end-over-end rotation for twenty minutes using lysis buffer [20 mM Tris-Cl pH 8, 100 mM NaCl, 6 mM MgCl2, 1.5% (v/v) Triton X-100, 60 mM octyl B-D-glucopyranoside, 0.2 mM of 2-Iodoacetamide, 1 mM EDTA pH 8, 1 mM PMSF, 1× complete EDTA-free protease inhibitor cocktail (Roche)] plus benzonase nuclease for twenty minutes. Tissue samples were homogenized in lysis buffer plus benzonase nuclease. All lysates were cleared by centrifugation. Samples with untagged MHC molecules were subsequently incubated with GammaBind Plus Sepharose Beads (GE Healthcare) pre-charged with a pan-HLA A/B/C antibody (clone W6/32) overnight at 4 C with end-over-end rotation. BAP-tagged samples were biotinylated with 0.56 μM biotin, 1 mM ATP, and 1 μM BirA biotin ligase for 10 minutes, and subsequently incubated with High-Capacity NeutrAvidin Agarose resin for 30 minutes at 4° C. with end-over-end rotation. Following enrichment, beads were washed 2× with wash buffer A [20 mM Tris-Cl pH 8, 100 mM, NaCl, 60 mM octyl B-D-glucopyranoside, 0.2 mM of 2-Iodoacetamide, 1 mM EDTA pH 8] and wash buffer B [10 mM Tris-Cl pH 8] using a positive pressure manifold. […]"}, "[3]": {"biological_target": "T3, HLA-C*07:02 (human)", "T3 construct": "MHC class I molecule expressed by the cells or tissue sample (endogenous or BAP-tagged), immunopurified before peptide elution", "assay": "MS validation of HLA class I-presented peptide (second allele under Allele (MS)); sample human prostate", "description": "as §1"}, "[4]": {"biological_target": "T2, HLA-C*06:02", "assay": "MS validation of HLA class I-presented peptide; sample human prostate", "description": "(§2) Frozen cell pellets endogenously expressing MHC molecules (untagged) or biotin acceptor peptide (BAP)-tagged MHC molecules were lysed by pipetting and end-over-end rotation for twenty minutes using lysis buffer [20 mM Tris-Cl pH 8, 100 mM NaCl, 6 mM MgCl2, 1.5% (v/v) Triton X-100, 60 mM octyl B-D-glucopyranoside, 0.2 mM of 2-Iodoacetamide, 1 mM EDTA pH 8, 1 mM PMSF, 1× complete EDTA-free protease inhibitor cocktail (Roche)] plus benzonase nuclease for twenty minutes. Tissue samples were homogenized in lysis buffer plus benzonase nuclease. All lysates were cleared by centrifugation. Samples with untagged MHC molecules were subsequently incubated with GammaBind Plus Sepharose Beads (GE Healthcare) pre-charged with a pan-HLA A/B/C antibody (clone W6/32) overnight at 4 C with end-over-end rotation. BAP-tagged samples were biotinylated with 0.56 μM biotin, 1 mM ATP, and 1 μM BirA biotin ligase for 10 minutes, and subsequently incubated with High-Capacity NeutrAvidin Agarose resin for 30 minutes at 4° C. with end-over-end rotation. Following enrichment, beads were washed 2× with wash buffer A [20 mM Tris-Cl pH 8, 100 mM, NaCl, 60 mM octyl B-D-glucopyranoside, 0.2 mM of 2-Iodoacetamide, 1 mM EDTA pH 8] and wash buffer B [10 mM Tris-Cl pH 8] using a positive pressure manifold. MHC molecules were eluted using 10% acetic acid and peptides were isolated using 10K molecular weight cut-off filtration following filter passivation with 1% bovine serum albumin (BSA). If required, samples were next reduced and alkylated using 5 mM Bond-Breaker TCEP solution at 60° C. for 30 min followed by 15 mM 2-Iodoacetamide for 30 min, protected from light. Samples were next acidified using 100% formic acid and desalted using 10 mg Sep-Pak tC18 μElution plates with peptide elutions at 15% acetonitrile and 50% acetonitrile, which were subsequently pooled. The volume of eluted peptides was reduced using vacuum centrifugation."}, "[5]": {"biological_target": "T4, HLA-A*02:01 (human)", "T4 construct": "MHC class I molecule expressed by the cells or tissue sample (endogenous or BAP-tagged), immunopurified before peptide elution", "assay": "MS validation of HLA class I-presented peptide; sample human prostate", "description": "as §2"}, "[6]": {"biological_target": "T3, HLA-C*07:02", "assay": "MS validation of HLA class I-presented peptide; sample human prostate", "description": "as §2"}, "[7]": {"biological_target": "T5, HLA-B*07:02 (human)", "T5 construct": "MHC class I molecule expressed by the cells or tissue sample (endogenous or BAP-tagged), immunopurified before peptide elution", "assay": "MS validation of HLA class I-presented peptide; sample human prostate", "description": "as §2"}, "[8]": {"biological_target": "T6, HLA-C*04:01 (human)", "T6 construct": "MHC class I molecule expressed by the cells or tissue sample (endogenous or BAP-tagged), immunopurified before peptide elution", "assay": "MS validation of HLA class I-presented peptide; sample human prostate", "description": "as §2"}, "[9]": {"biological_target": "T7, HLA-A*01:01 (human)", "T7 construct": "MHC class I molecule expressed by the cells or tissue sample (endogenous or BAP-tagged), immunopurified before peptide elution", "assay": "MS validation of HLA class I-presented peptide; sample human prostate", "description": "as §2"}, "[10]": {"biological_target": "T4, HLA-A*02:01", "assay": "MS validation of HLA class I-presented peptide; samples CD165, HCC1500, CAMA1", "description": "as §1"}, "[11]": {"biological_target": "T6, HLA-C*04:01", "assay": "MS validation of HLA class I-presented peptide; samples B721, A375", "description": "as §1"}, "[12]": {"biological_target": "T4, HLA-A*02:01", "assay": "MS validation of HLA class I-presented peptide; samples CAMA1, HCC1500", "description": "as §1"}, "[13]": {"biological_target": "T6, HLA-C*04:01", "assay": "MS validation of HLA class I-presented peptide; sample CAMA1", "description": "as §1"}, "[14]": {"biological_target": "T4, HLA-A*02:01", "assay": "MS validation of HLA class I-presented peptide; multiple cell lines and tumor samples", "description": "as §1"}, "[15]": {"biological_target": "T7, HLA-A*01:01", "assay": "MS validation of HLA class I-presented peptide; samples GBM, A375", "description": "as §1"}, "[16]": {"biological_target": "T4, HLA-A*02:01", "assay": "MS validation of HLA class I-presented peptide; samples lung tumor, GBM, OvCa13, breast tumor, A375, MSV000082648", "description": "as §1"}, "[17]": {"biological_target": "T4, HLA-A*02:01", "assay": "MS validation of HLA class I-presented peptide; sample A375", "description": "as §1"}, "[18]": {"biological_target": "T5, HLA-B*07:02", "assay": "MS validation of HLA class I-presented peptide (second allele under Allele (MS)); samples MDAPCa2b, human prostate, breast cancer", "description": "as §1"}, "[19]": {"biological_target": "T8, HLA-C*07:01 (human)", "T8 construct": "MHC class I molecule expressed by the cells or tissue sample (endogenous or BAP-tagged), immunopurified before peptide elution", "assay": "MS validation of HLA class I-presented peptide; samples MDAPCa2b, human prostate, breast cancer", "description": "as §1"}, "[20]": {"biological_target": "T3, HLA-C*07:02", "assay": "MS validation of HLA class I-presented peptide (second allele under Allele (MS)); samples MDAPCa2b, human prostate", "description": "as §1"}, "[21]": {"biological_target": "T8, HLA-C*07:01", "assay": "MS validation of HLA class I-presented peptide; samples MDAPCa2b, human prostate", "description": "as §1"}, "[22]": {"biological_target": "T9, HLA-A*24:02 (human)", "T9 construct": "MHC class I molecule expressed by the cells or tissue sample (endogenous or BAP-tagged), immunopurified before peptide elution", "assay": "MS validation of HLA class I-presented peptide; sample human prostate", "description": "as §2"}, "[23]": {"biological_target": "T9, HLA-A*24:02", "assay": "MS validation of HLA class I-presented peptide (validation cell empty in Table 1C); sample human prostate"}}}
{"molecule": "HPEYNRPLL (listed as Homo sapiens)", "values": [{"measurement": "dot product similarity score of peptide fragment ions", "setting": "[1]", "value": 0.992}]}
{"molecule": "B1", "values": [{"measurement": "binding result", "setting": "[2]", "value": "binds"}]}
{"molecule": "B2", "values": [{"measurement": "binding result", "setting": "[3]", "value": "binds"}, {"measurement": "binding result", "setting": "[4]", "value": "binds"}]}
{"molecule": "B3", "values": [{"measurement": "binding result", "setting": "[5]", "value": "binds"}]}
{"molecule": "B4", "values": [{"measurement": "binding result", "setting": "[6]", "value": "binds"}]}
{"molecule": "B5", "values": [{"measurement": "binding result", "setting": "[7]", "value": "binds"}]}
{"molecule": "B6", "values": [{"measurement": "binding result", "setting": "[3]", "value": "binds"}, {"measurement": "binding result", "setting": "[4]", "value": "binds"}]}
{"molecule": "B7", "values": [{"measurement": "binding result", "setting": "[8]", "value": "binds"}]}
{"molecule": "B8", "values": [{"measurement": "binding result", "setting": "[6]", "value": "binds"}]}
{"molecule": "B9", "values": [{"measurement": "binding result", "setting": "[9]", "value": "binds"}]}
{"molecule": "B10", "values": [{"measurement": "binding result", "setting": "[10]", "value": "binds"}]}
{"molecule": "B11", "values": [{"measurement": "binding result", "setting": "[11]", "value": "binds"}]}
{"molecule": "B12", "values": [{"measurement": "binding result", "setting": "[12]", "value": "binds"}]}
{"molecule": "B13", "values": [{"measurement": "binding result", "setting": "[13]", "value": "binds"}]}
{"molecule": "B14", "values": [{"measurement": "binding result", "setting": "[12]", "value": "binds"}]}
{"molecule": "B15", "values": [{"measurement": "binding result", "setting": "[14]", "value": "binds"}]}
{"molecule": "B16", "values": [{"measurement": "binding result", "setting": "[15]", "value": "binds"}]}
{"molecule": "B17", "values": [{"measurement": "binding result", "setting": "[16]", "value": "binds"}]}
{"molecule": "B18", "values": [{"measurement": "binding result", "setting": "[17]", "value": "binds"}]}
{"molecule": "B19", "values": [{"measurement": "binding result", "setting": "[17]", "value": "binds"}]}
{"molecule": "B20", "values": [{"measurement": "binding result", "setting": "[18]", "value": "binds"}, {"measurement": "binding result", "setting": "[19]", "value": "binds"}]}
{"molecule": "B21", "values": [{"measurement": "binding result", "setting": "[20]", "value": "binds"}, {"measurement": "binding result", "setting": "[21]", "value": "binds"}]}
{"molecule": "B22", "values": [{"measurement": "binding result", "setting": "[22]", "value": "binds"}]}
{"molecule": "B23", "values": [{"measurement": "binding result", "setting": "[23]", "value": "binds"}]}
